# According to patent publication US20080199467A1:
# Target: Fc receptor on THP-1 cells
# Assay: cell-based or functional assay
# RAGE fusion protein TTP-4000 (Fc fusion), sequence (chain): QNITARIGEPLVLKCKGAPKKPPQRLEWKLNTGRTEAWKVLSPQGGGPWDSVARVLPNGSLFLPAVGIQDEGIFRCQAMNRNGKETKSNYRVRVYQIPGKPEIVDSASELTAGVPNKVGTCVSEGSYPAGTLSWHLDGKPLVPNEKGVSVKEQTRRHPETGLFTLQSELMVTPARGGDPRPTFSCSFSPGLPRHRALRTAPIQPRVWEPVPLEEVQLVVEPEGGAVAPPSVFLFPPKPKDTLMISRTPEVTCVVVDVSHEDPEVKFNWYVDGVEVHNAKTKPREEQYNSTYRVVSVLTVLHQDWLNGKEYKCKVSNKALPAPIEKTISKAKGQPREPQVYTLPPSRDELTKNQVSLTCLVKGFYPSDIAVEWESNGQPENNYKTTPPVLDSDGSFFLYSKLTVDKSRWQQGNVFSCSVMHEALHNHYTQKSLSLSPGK
row,Substance,TNF-α secretion from THP-1 cells on wells coated with 10 ug/well heat aggregated protein [ng/well]
1,RAGE fusion protein TTP-4000 (Fc fusion),< 2
2,"human IgG1 (heat aggregated, coated on the well) (antibody)",> 40
